Measured values as given in PMC7102599 (Cell, 2020).
Several values for one entry are separate records, joined by “and”; a condition that tells them apart may be missing. Identical values can stand only once.

Biological target: human angiotensin-converting enzyme 2 ectodomain (ACE2, residues 1-614) (human, UniProt Q9BYF1 18-614)
Test: BLI

Sequence of human angiotensin-converting enzyme 2 ectodomain (ACE2, residues 1-614) (Q9BYF1 18-614): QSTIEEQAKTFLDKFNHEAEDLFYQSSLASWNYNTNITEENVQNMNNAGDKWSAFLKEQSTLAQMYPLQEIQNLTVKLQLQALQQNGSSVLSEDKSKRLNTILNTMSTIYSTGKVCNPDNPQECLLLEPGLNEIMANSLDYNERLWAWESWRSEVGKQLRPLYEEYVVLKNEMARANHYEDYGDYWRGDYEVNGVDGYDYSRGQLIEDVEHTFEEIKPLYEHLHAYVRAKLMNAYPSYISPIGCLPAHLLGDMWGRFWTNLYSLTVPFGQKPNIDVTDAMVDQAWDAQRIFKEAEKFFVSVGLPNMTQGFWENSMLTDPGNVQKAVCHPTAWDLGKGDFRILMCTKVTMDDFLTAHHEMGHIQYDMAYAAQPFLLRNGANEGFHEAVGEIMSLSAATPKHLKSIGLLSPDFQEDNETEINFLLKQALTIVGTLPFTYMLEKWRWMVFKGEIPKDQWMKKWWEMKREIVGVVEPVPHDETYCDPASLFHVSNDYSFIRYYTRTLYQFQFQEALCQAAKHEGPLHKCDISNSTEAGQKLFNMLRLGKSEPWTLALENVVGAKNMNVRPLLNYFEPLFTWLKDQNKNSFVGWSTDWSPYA

B1: SARS-CoV S domain B (S^B), residues 306-575 (domain or fragment)
chain: not shown
Kd: 5 ± 0.1 nM | koff: 0.00087 s⁻¹ and 0.00071 s⁻¹ | kon: 170000 M⁻¹ s⁻¹
